Data as given in patent US7858756B2, “Monoclonal antibodies that selectively recognize methamphetamine and methamphetamine like compounds” (The Board of Trustees of the University of Arkansas, priority 2006, dated 2010).
Where a chain is given by its changes, count along the chain named. Entries after “also recorded” stand apart in the source; their conditions may differ.

What was measured:
[1] = RIA, inhibition of [3H]-(+)METH binding to mAb; details: RIA IC50 for METH / RIA IC50 for test ligand
Description: In reference to (+)methamphetamine, the IC50 ratio refers to the ratio of the IC50 for (+)methamphetamine in the presence of labeled (+)methamphetamine to the IC50 for a test ligand in the presence of labeled (+)methamphetamine. The IC50 value is the concentration of test ligand required to inhibit 50% of the labeled (+)methamphetamine binding. For instance, see Table 2 in the Examples.
Determination of immunochemical specificity.

[2] = Functional half-life study, 14-day continuous (+)METH infusion, serum concentrations; type: in vivo, rats
Description: The best-fit line was determined using a weighted two-compartment pharmacokinetic model.
Serum samples were collected pre-mAb and at time points after mAb administration.

[3] = METH infusion by sc osmotic minipump, serum and brain METH and AMP concentrations after mAb; type: in vivo, rat; details: for AMP serum concentrations vs pre-mAb levels / METH serum concentrations vs pre-mAb levels: rat serum, 1 min to 24 hr after mAb, FIG. 7
Description: FIG. 7 depicts two graphs showing the effect of mAb6H4 (Panel A) and mAb4G9 (Panel B) on METH (closed circles) and AMP (open circles) concentrations in rat serum. METH was infused using a subcutaneous osmotic minipump and once steady state concentrations were reached, anti-METH mAb was administered. Rats were sacrificed at various time points for determination of serum METH and AMP concentrations.
FIG. 8 depicts two graphs showing the effect of mAb6H4 (Panel A) and mAb4G9 (Panel B) on METH (closed circles) and AMP (open circles) concentrations in the rat brain. METH was infused using a subcutaneous osmotic minipump and once steady state concentrations were reached, anti-METH mAb was administered. Rats were sacrificed at various time points for determination of brain METH and AMP concentrations. One way ANOVA followed by a Dunnett's test was used to compare control and post-mAb METH and AMP values.

[4] = METH drug discrimination model; type: in vivo, rats; details: 600 mg/kg mAb
Description: (§1) FIG. 6 presents graphs depicting the effect of mAb4G9 on METH discrimination (Panel A) and AMP self-administration (Panel B) in rats. (A) Rats were trained to discriminate […] and METH and then administered mAb4G9. Drug discrimination dose response curves were then determined for METH. (B) (+)AMP self-administration before and after treatment with mAb4G9 (3-4 rats/time point). Dashed lines are used to show the groupings of responding for (+)AMP before and after mAb. *P<0.05 compared to control group before antibody (open circles).
The in vivo effects of mAb4G9 were examined using a drug discrimination model. mAb4G9 appeared to be an effective and long-lasting antagonist of METH effects in this model (FIG. 6A). The mAb4G9 (600 mg/kg) shifted the dose response curves for at least 7 days. On the first and second day after mAb treatment, the dose response curve was shifted about 4- to 6-fold. When tested again at 7 days after mAb4G9 treatment, the dose response curve was still shifted about 2.5 fold.

[5] = (+)AMP self-administration, fixed interval (60 sec) paradigm; type: in vivo, rats; details: 100 mg/kg mAb, 0.03 mg/kg (+)AMP per infusion
Description: as §1
We also tested the ability of mAb4G9 to block (+)AMP self-administration in a model in which rats responded under a fixed interval (60 sec) paradigm for a dose of 0.03 mg/kg (+)AMP per infusion.

[6] = (+)METH 5.6 mg/kg/day sc minipump, single mAb dose equimolar to body burden

B1: mAb4G9: monoclonal antibody, IgG2b κ, heavy chain SEQ ID NO:25, light chain SEQ ID NO:26, generated against hapten (+)METH MO10-ovalbumin (antibody, listed as Mus musculus)
heavy: EYQLQQSGTVLARPGASVKMSCKASGYTFTSYWMHWVKQRPGQGLEWIGGIYPGNSDTTYNQKFKGKAKLTAVTSTSTAYMELSSLTNEDSAVYYCLYGNYDFDYWGQGTTLTVSSAKTTPPSVYPLAPGCGDTTGSSVTLGCLVKGYFPESVTVTWNSGSLSSSVHTFPALLQSGLYTMSSSVTVPSSTWPSQTVTCSVAHPASSTTVDKKLEPSGPISTINPCPPCKECHKCPAPNLEGGPSVFIFPPNIKDVLMISLTPKVTCVVVDVSEDDPDVQISWFVNNVEVHTAQTQTHREDYNSTIRVVSTLPIQHQDWMSGKEFKCKVNNKDLPSPIERTISKIKGLVRAPQVYILPPPAEQLSRKDVSLTCLVVGFNPGDISVEWTSNGHTEENYKDTAPVLDSDGSYFIYSKLNMKTSKWEKTDSFSCNVRHEGLKNYYLKKTISRSPGK
light: DVQMTQSPSSLSASLGGKVTITCKASQDINKFIAWYQHKPGKGPRLLIHYTSTLQPGIPSRFSGSGSGRDYSFSISNLEPEDIATYYCLQYANLLPWTFGGGTKLEIKRADAAPTVSIFPPSSEQLTSGGASVVCFLNNFYPKDINVKWKIDGSERQNGVLNSWTDQDSKDSTYSMSSTLTLTKDEYERHNSYTCEATHKTSTSPIVKSFNRNEC
Antibody Specificity (IC50 ratio as percent), 4-OH-METH [1]: 10.6% | Antibody Specificity (IC50 ratio as percent), (+)AMP [1]: 34% | Antibody Specificity (IC50 ratio as percent), (+)MDA [1]: 9.0% | Antibody Specificity (IC50 ratio as percent), (+)MDMA [1]: 29% | Antibody Specificity (IC50 ratio as percent), (+)METH [1]: 100% | Antibody Specificity (IC50 ratio as percent), (+)ephedrine [1]: <0.1% | Antibody Specificity (IC50 ratio as percent), (+)norpseudoephedrine [1]: <0.1% | Antibody Specificity (IC50 ratio as percent), (+)phenylpropanolamine [1]: <0.1% | Antibody Specificity (IC50 ratio as percent), (+)pseudoephedrine [1]: 0.4% | Antibody Specificity (IC50 ratio as percent), (−)AMP [1]: 6.3% | Antibody Specificity (IC50 ratio as percent), (−)MDA [1]: 0.2% | Antibody Specificity (IC50 ratio as percent), (−)MDMA [1]: 1.1% | Antibody Specificity (IC50 ratio as percent), (−)METH [1]: 10.2% | Antibody Specificity (IC50 ratio as percent), /-phenylphrine [1]: <0.1% | Antibody Specificity (IC50 ratio as percent), dopamine [1]: <0.1% | Antibody Specificity (IC50 ratio as percent), epinephrine [1]: <0.1% | Antibody Specificity (IC50 ratio as percent), norepinepherine [1]: <0.1% | Antibody Specificity (IC50 ratio as percent), serotonin [1]: <0.1% | Antibody Specificity (IC50 ratio as percent), tyramine [1]: <0.1% | Antibody Specificity (IC50 ratio as percent), β-phenylethylamine [1]: 0.1% | serum (+)AMP concentrations compared with pre-mAb [2, 6]: maintained significantly increased concentrations | serum (+)METH concentrations compared with pre-mAb [2, 6]: maintained significantly increased concentrations | time after which mAb still very effective ([2]; continuous (+)METH infusion, single mAb dose): about 2 wks | AMP brain concentrations vs no mAb group ([3]; rat brain, FIG. 8): reduces both METH and AMP concentrations in the brain; also recorded: significantly decreased at the 5 and 30 min time points | METH brain concentrations vs no mAb group ([3]; rat brain, FIG. 8): reduces both METH and AMP concentrations in the brain; also recorded: significantly decreased METH brain concentrations at all time points | AMP serum concentrations vs pre-mAb levels [3]: repartitions AMP into the serum from other compartments; also recorded: maintains significantly elevated serum METH and AMP concentrations 24 h after administration | METH serum concentrations vs pre-mAb levels [3]: maintains significantly elevated serum METH and AMP concentrations 24 h after administration | AMP serum concentrations vs pre-mAb levels ([3]; listed as MAb4G9): significantly increased METH and AMP serum concentrations from 1 min to 24 hrs | METH serum concentrations vs pre-mAb levels ([3]; listed as MAb4G9): significantly increased METH and AMP serum concentrations from 1 min to 24 hrs | duration of shift of dose response curves [4]: at least 7 days | shift of METH dose response curve ([4]; 7 days after treatment): about 2.5 fold | number of (+)AMP injections per session [5]: significantly reduced

B2: mAb2F11: monoclonal antibody comprising heavy chain SEQ ID NO:19 and light chain SEQ ID NO:21 (antibody, listed as Mus musculus)
heavy: EYQLQQSGTVLARPGASVKMSCKASGYTFTNYWMHWVKQRPGQGLEWIGGIYPGNSDTTYNQKFKGKAKLTAVTSTSTAYMELSSLTNEDSAVYYCLYGNYDFDYWGQGTTLTVSSAKTTAPSVYPLAPVCGDTTGSSVTLGCLVKGYFPEPVTLTWNSGSLSSGVHTFPAVLQSDLYTLSSSVTVTSSTWPSQSITCNVAHPASSTKVDKKIEPRGPTIKPCPPCKCPAPNLLGGPSVFIFPPKIKDVLMISLSPIVTCVVVDVSEDDPDVQISWFVNNVEVHTAQTQTHREDYNSTLRVVSALPIQHQDWMSGKEFKCKVNNKDLPAPIERTISKPKGSVRAPQVYVLPPPEEEMTKKQVTLTCMVTDFMPEDIYVEWTNNGKTELNYKNTEPVLDSDGSYFMYSKLRVEKKNWVERNSYSCSVVHEGLHNHHTTKSFSRTPGK
light: B1 light with V2I, Q27H, I29V, A92T
Antibody Specificity (IC50 ratio as percent), (+)AMP [1]: 33% | Antibody Specificity (IC50 ratio as percent), (+)MDMA [1]: 41% | Antibody Specificity (IC50 ratio as percent), (+)METH [1]: 100%^ | Antibody Specificity (IC50 ratio as percent), (−)AMP [1]: 5.3% | Antibody Specificity (IC50 ratio as percent), (−)MDMA [1]: 0.6% | Antibody Specificity (IC50 ratio as percent), (−)METH [1]: 2.2%
